Assays:
RFX1 [1] = target: T1, RFX1 (Homo sapiens, UniProt P22670 1-979); test: EMSA; shifted to C2 position; favored over wild-type; EMSA: 1x binding buffer from 10x (50 mM NaCl, 10 mM Tris-HCl pH 7.5, 2.5 mM MgCl2, 4% glycerol, 0.5 mM DTT), 0.05% NP40, poly(dI-dC), 20 ul, room temperature 1; details: protein: ivt; tags: C-terminal myc in the source clone pCMV-RFX1; chain copies: 2; label: 32P end label (T4 kinase); blunt
T1 sequence: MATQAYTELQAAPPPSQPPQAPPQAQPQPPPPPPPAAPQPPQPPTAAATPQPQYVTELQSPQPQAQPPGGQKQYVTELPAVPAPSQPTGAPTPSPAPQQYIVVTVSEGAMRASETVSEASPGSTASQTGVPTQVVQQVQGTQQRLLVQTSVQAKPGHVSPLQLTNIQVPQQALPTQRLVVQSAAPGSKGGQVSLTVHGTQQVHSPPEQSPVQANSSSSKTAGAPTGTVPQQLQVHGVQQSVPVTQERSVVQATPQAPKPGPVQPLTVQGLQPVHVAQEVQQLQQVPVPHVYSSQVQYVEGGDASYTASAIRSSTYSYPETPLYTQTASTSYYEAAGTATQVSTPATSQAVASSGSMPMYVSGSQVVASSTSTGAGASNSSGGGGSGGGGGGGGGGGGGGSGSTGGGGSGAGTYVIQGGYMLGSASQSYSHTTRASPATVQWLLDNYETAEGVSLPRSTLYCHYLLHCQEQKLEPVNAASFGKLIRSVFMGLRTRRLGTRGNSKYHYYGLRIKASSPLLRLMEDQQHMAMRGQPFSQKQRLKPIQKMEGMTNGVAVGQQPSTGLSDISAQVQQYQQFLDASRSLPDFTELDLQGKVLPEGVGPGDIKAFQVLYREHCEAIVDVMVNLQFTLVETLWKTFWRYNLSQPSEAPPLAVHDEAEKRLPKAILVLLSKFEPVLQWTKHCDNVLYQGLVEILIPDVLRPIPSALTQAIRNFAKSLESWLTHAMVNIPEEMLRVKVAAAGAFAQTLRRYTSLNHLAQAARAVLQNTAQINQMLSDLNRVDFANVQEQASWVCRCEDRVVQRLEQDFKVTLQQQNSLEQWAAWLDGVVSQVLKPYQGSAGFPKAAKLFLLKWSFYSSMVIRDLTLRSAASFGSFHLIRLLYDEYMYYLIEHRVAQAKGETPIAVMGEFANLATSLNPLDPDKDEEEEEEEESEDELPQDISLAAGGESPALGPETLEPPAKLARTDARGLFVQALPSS

RFX1 [2] = target: T1, RFX1; test: EMSA; EMSA: 1x binding buffer from 10x (50 mM NaCl, 10 mM Tris-HCl pH 7.5, 2.5 mM MgCl2, 4% glycerol, 0.5 mM DTT), 0.05% NP40, poly(dI-dC), 20 ul, room temperature 1; details: protein: ivt; tags: C-terminal myc in the source clone pCMV-RFX1; chain copies: 2; label: 32P end label (T4 kinase); blunt

B1: A1613 mutant NRE probe (dsDNA)
DNA 1: GCACGTCGCATGGAAACCACCGTGAACGCC
DNA 2: GGCGTTCACGGTGGTTTCCATGCGACGTGC
binding result (RFX1 [1]): binds

B2: NS non-specific oligo (dsDNA)
DNA 1: GGAATTACGTGGCCACTCGAGGGAATTACG
DNA 2: CGTAATTCCCTCGAGTGGCCACGTAATTCC
binding result (RFX1 [2]): no binding

— article PMC3140978, “The G1613A Mutation in the HBV Genome Affects HBeAg Expression and Viral Replication through Altered Core Promoter Activity”
